Assay results published in patent US20250277030A1, “ANTI-NAPI2B ANTIBODIES AND METHODS OF USE” (Zymeworks BC Inc., priority 2022, published 2025).

How the values were obtained:
[1] = Stability (fragmentation) in PBS pH 7.4 at 37° C. by LC-MS; type: physicochemical; settings: for apparent % desired proteoforms: PBS 37° C., 0.5 mg/ml
Experimental: Samples were removed after 0, 7 and 14 days and stored at −80° C. until characterization. For characterization, samples were thawed at room temperature and 50 μg were incubated with 5 μg of recombinant EndoS endoglycosidase for one hour at room temperature. An immunoprecipitation slurry was generated by a 45 min incubation of 95 μL/sample of magnetic Sepharose streptavidin-coated beads with 15 μg/sample of biotinylated goat anti-Human IgG Fc capture antibody, followed by 4 washes with PBS pH 7.4 with the aid of a DynaMag™-2 magnet (Invitrogen™).
After deglycosylation, plasma-incubated samples were incubated with 95 μL of the immunoprecipitation slurry for 1.5 hrs at room temperature. Then, the slurry underwent 6 washes with PBS pH 7.4 and 2 washes with LC-MS-grade water with the aid of a DynaMag™-2 magnet (Invitrogen™). A final wash with PBS pH 7.4 was performed before elution. Protein was eluted by incubating beads with 35 μL of LC-MS grade water with 20% acetonitrile and 0.1% formic acid for one hour at room temperature. PBS samples were not immunoprecipitated.
5 μL of the eluted sample were transferred to glass inserts in LC-MS vials. For LC-MS analysis, 1 μL of sample were injected into a Waters™ BioSuite Phenyl Column, 1000 Å, 10 μm, 4.6 mm×75 mm using a Waters™ ACQUITY™ UPLC I-Class HPLC system coupled to a Waters™ Synapt™ G2-Si HDMS with a column temperature of 70 C and a flow rate of 0.3 mL/min. Mobile phases consisted of A: LC-MS grade water with 0.1% v/v formic acid, 0.025 v/v trifluoroacetic acid and 10% v/v isopropyl alcohol in, and B: acetonitrile with 0.1% v/v formic acid and 10% v/v isopropyl alcohol. The column was pre-equilibrated in 10% mobile phase B before injection. Then, a 20 min 10 to 27% mobile phase B gradient was applied, followed by a 2 min 27 to 90% mobile phase B gradient and a column wash of 2 min at 99% mobile phase B.
The column was re-equilibrated to 10% mobile phase B for 2 minutes between runs. ESI was performed in positive mode with 3 kV of capillary voltage, 120 C source temperature, 100 V sampling cone voltage, source offset of 80 V, source gas flow of 0 ml/min, desolvation temperature 500 C, cone gas flow 0 μL/Hr, desolvation gas flow […], nebuliser gas flow 6.5 bar. Data format was continuum with analyser set in sensitivity mode, with a m/z range from 500 to 7000.
Peak integration, MS deconvolution and mass assignments were performed in Protein Metrics Byos® v4.0 using a deconvolution window of 60000-160000 Da with an m/z range of 1000-4000. For all time points, the highest intensity deconvoluted mass was assigned as the reference mass of v29456. […]

[2] = biological target: T1, NaPi2b expressed on IGROV-1 cells (Homo sapiens, UniProt O95436); test: Cellular binding of antibody and ADCs to IGROV-1 cells by flow cytometry (Example 14)
T1 construct: IGROV-1 cells express endogenous NaPi2b at a high level; endogenous in cells; host or cells: IGROV-1
T1 sequence (O95436 1-690): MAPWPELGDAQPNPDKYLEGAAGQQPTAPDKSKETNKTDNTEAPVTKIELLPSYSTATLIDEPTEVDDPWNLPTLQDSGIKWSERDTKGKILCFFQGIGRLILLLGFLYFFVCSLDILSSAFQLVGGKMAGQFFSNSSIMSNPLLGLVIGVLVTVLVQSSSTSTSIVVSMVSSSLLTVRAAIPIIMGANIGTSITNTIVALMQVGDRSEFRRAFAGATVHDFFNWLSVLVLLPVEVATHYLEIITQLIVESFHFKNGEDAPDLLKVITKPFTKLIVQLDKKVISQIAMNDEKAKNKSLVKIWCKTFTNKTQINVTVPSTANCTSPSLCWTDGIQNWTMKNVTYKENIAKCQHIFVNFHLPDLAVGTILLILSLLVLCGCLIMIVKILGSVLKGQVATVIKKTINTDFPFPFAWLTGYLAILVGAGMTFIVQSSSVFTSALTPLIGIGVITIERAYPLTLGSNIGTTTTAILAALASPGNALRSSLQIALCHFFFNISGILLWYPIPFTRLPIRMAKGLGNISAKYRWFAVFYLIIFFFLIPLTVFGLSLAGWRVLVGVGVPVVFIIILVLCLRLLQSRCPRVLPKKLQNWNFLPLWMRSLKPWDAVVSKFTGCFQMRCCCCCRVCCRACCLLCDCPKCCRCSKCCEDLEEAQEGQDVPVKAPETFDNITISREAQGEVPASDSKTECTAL
Experimental: Briefly, HEK293-6e cells were transfected for ˜24 hours to transiently express human NaPi2b, cynomolgus or mouse NaPi2b, at 1 μg of DNA per 1 million cells. Following transfection, 50,000 cells per well were seeded in V-bottom 96-well plates and incubated with 200 nM of primary antibody for 18-24 hours at 4° C. to prevent internalization. Post-incubation, cells were washed and stained with anti-Human IgG Fc AF647 conjugate (Jackson Immuno Research Labs, West Grove, PA, Cat. No. 109-605-098, Lot. No. 124868) at 4° C. for 1 hour. Following staining and washing, fluorescence was detected by flow cytometry on BD LSRFortessa™ Cell Analyzer (BD Biosciences, Franklin Lake, NJ) with 10,000 minimum events collected per well. The AF647/APC-A GeoMean (fluorescence signal geometric mean, proportional to anti-Human AF647 binding) was calculated for the live singlet cell population for each primary antibody using FlowJo™ v8 software (BD Biosciences, Franklin Lake, NJ). The Bmax and Kd of each primary antibody were calculated using GraphPad Prism Version 9 (GraphPad Software, San Diego, CA)
The ability of ADCs to bind to cells expressing NaPi2b was assessed. ADCs of a representative humanized variant antibody, v29456 (H1L2), were prepared by conjugation to DL2 and DL1 as described in Example 11. Binding to endogenous high NaPi2b-expressing cell lines IGROV-1 and HCC-78 was assessed by flow cytometry according to methods described in Example 5.

B1: v29456: humanized anti-NaPi2b IgG1/kappa antibody H1L2; VH SEQ ID NO:24, VL SEQ ID NO:29 (antibody, V domains shown)
VH: QVQLVQSGAEVKKPGASVKVSCKASGFTFTSYNVHWVRQAPGQGLEWMGAISPGNGDLSYAQKFQGRVTMTRDTSTSTVYMELSSLRSEDTAVYYCARGRTGMGAVDYWGQGTLVTVSS
VL: DVQMTQSPSSLSASVGDRVTITCRASQDVYSYLNWYQQKPGKAVKLLIYYTSRLQSGVPSRFSGSGSGTDYTLTISSLQPEDFATYYCQQYNIFPWTFGQGTKLEIK
modifications: v29452, v29456, v29460 VH (H1); v29453, v29454, v29455, v29456 VL (L2)
[1]; 37° C., 7 and 14 days
  fragmentation in PBS pH 7.4, in words: no evidence of fragmentation
[1]; 0 days
  apparent % desired proteoforms: 99.8%
[1]; 7 days
  apparent % desired proteoforms: 99.2%
[1]; 14 days
  apparent % desired proteoforms: 99.6%
[2]
  Bmax (MFI): 78,059 MFI
  Curve Hill Slope (h): 1.7
[2]; apparent Kd
  Kd: 0.65 nM
